The values below come from patent US20130136748A1 (Ablynx, published 2013).

Several values for one entry are separate records, joined by “and”; a condition that tells them apart may be missing. Identical values can stand only once.

Assay [1] has as its target T1, hHER3 ECD (human HER3 extracellular domain) (human, UniProt P21860 20-643).
T1 construct: also called recombinant HER3-ECD
Briefly: SPR off rate.

Assay [2] concerns the target T2, hHER3 full length (human, UniProt P21860 20-1342). The assay is described as follows: cell-based or functional assay.
The target in assay [3] is T1, hHER3 ECD (human HER3 extracellular …). Briefly: off rate screening on recombinant HER3-ECD.
Assay [4] addresses T3, human HER3-Fc (R&D Systems, 348-RB) (human, UniProt P21860 20-643).
T3 construct: Bought; also called hHER3-Fc; Fc-HER3; Fc part of the bought chimera not given, not described
Briefly: 18G11 competition alphascreen.

Assay [5] concerns the target T1, hHER3 ECD (human HER3 extracellular …). The assay is described as follows: SPR off rate on HER3-ECD, periplasmic extract.
For assay [6], the target named is T3, human HER3-Fc (R&D Systems, 348-RB). Briefly: alphascreen, competitor biotinylated 18G11. For orientation: Alpha assays give light when donor and acceptor beads are brought close together.
The target in assay [7] is T4, Chimeric chicken Her3-human domain 2 (AA207-328 human) (chicken/human chimera).
T4 construct: Transmembrane and extracellular regions, on HEK293 cells
T4 chain: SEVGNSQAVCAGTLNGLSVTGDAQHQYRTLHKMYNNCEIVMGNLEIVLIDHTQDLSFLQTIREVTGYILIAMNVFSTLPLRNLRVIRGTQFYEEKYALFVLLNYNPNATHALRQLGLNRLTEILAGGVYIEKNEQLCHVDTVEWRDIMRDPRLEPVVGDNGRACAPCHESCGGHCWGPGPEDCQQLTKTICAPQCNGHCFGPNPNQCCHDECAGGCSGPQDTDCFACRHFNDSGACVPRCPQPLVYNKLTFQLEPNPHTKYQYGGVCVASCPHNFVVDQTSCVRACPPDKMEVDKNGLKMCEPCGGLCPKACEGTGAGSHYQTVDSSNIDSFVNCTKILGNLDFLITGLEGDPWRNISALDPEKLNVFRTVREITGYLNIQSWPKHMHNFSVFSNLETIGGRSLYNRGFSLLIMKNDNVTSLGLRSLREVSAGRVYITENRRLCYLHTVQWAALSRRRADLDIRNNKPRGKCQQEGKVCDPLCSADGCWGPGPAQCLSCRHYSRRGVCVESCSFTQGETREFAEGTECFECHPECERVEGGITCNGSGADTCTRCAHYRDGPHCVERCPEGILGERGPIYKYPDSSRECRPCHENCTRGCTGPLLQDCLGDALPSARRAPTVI
The assay is described as follows: FACS, HEK293 with chimeric HER3.

Assay [8] concerns the target T3, human HER3-Fc (R&D Systems, 348-RB). Briefly: HRG competition alphascreen.
The target is the same in assay [9]. Briefly: HRG competition alphascreen. This is another data set of the same source.
Assay [10] has as its target T2, hHER3 full length. The assay is described as follows: cell-based or functional assay. This is another data set of the same source.
The target in assay [11] is T5, Chimeric chicken Her3-human domain 1 (AA1-206 human, AA207-642 chicken) (chicken/human chimera).
T5 construct: Transmembrane and extracellular regions, on HEK293 cells
T5 chain: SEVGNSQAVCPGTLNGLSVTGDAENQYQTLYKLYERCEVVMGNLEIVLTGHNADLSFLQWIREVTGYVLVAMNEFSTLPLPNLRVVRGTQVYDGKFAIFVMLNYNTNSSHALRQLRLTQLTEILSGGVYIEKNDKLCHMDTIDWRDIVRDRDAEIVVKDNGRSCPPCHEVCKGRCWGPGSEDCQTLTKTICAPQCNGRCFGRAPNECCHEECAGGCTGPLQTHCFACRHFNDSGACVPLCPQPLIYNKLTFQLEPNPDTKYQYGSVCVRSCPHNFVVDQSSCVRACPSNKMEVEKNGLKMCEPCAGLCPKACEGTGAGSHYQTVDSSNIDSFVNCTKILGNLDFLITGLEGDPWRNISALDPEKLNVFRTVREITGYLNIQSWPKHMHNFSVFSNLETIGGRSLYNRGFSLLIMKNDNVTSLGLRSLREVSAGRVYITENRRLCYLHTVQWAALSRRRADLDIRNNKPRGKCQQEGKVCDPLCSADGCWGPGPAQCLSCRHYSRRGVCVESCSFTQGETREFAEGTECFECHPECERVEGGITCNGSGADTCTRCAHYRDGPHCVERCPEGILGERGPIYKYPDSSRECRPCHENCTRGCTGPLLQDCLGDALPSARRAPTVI
The assay is described as follows: FACS, HEK293 with chimeric HER3.

Assay [12] has as its target T2, hHER3 full length. The assay is described as follows: FACS competition with HRG1-β1-EGF, CHO-HER3.
For assay [13], the target named is T3, human HER3-Fc (R&D Systems, 348-RB). The assay is described as follows: HRG competition alphascreen. The source holds these as a separate data set.
Assay [14] shares this target. The assay is described as follows: SPR, HER3-Fc captured; heterogenous curve, main interaction (89%). Background: In SPR one partner is held on a chip, and binding of the other changes the refractive index at the surface.

B1: 18G11 (VHH)
VHH: EVQLVESGGGLVQPGGSLRLSCAASGTLFKINAMGWYRQAPGKRRELVALITSSDTTDYAESVEGRFTISRDNTWNAVYLQMNSLKPEDTAVYYCHSDHYSMGVPEKRVIMYGQGTQVTVSS
notes: c-myc, His6-tagged form as expressed; also called HER3MS18G11; HER3MS018G11
As a reminder, the koff is the first-order rate constant of dissociation. A word on the IC50: it is the concentration needed to halve the response being measured. A high value points to lower potency. For the molecule B1, the dissociation rate constant (koff) was 0.00043 s⁻¹ and 0.00047 s⁻¹ in assay [1]; 0.00061 s⁻¹ in assay [3]; 0.00062 s⁻¹ and 0.00077 s⁻¹ in assay [5]. Also, the “IC50 pHER3 blocking, HRG stimulated MCF7” value with hHER3 full length [2] was found to be 2.91e-08 M. Further, the IC50 came to 4.4 nM in [4] and 3.2 nM in assay [6]. Further, the binding result in [7] is on record as “binds”.

B2: 04C07 (VHH)
VHH: EVQLVESGGGLVQAGGSLRLSCAASGFTFSSYPMSWVRQAPGKGPAWVSTVSPGGITTSYADSVKGRFTISRDNAKNTLYLQMNSLKPEDTAVYYCLRDLNNRGQGTQVTVSS
notes: also called HER3MS04C07; HER3MS004C07
A word on the % inhibition: it is the change of the read-out against control, counted positive when it falls. On to B2, for which the “% inhibition” value in assay [8] amounted to 86.7%. Further, the IC50 was 0.264 nM in assay [8]; 0.18 nM in assay [9]; 4.26 nM in the assay with hHER3 full length [12]; 0.27 nM and 0.69 nM in assay [13]. The “IC50 pHER3, HRG1-β1 stimulated MCF7” value in the assay with hHER3 full length [10] amounted to 6.25e-09 M. Further, the binding result in [11] is “binds”.

B3: 17C08 (VHH)
VHH: EVQLVESGGGLMQAGDSLRLSCAASGRAFSSYALGWFRRAPGKERECVAATDRLGDNTYFPDSVKGRFTISRDNAKNTLYLQMNNLKPEDTAVYYCAAGAVRYGVSTSPMNYNYWGQGTQVTVSS
notes: also called 17C8
In general, Kd refers to the concentration at which binding is half-saturated. The kon is the rate constant with which the complex forms. Low values mean slow association, high ones fast association. In assay [14], B3 registered a Kd of 48 nM. The molecule further returned a kon in [14] of 8400 M⁻¹ s⁻¹. The binding result in assay [7] and in [11] was “binds” throughout.
